From publication PMC10937380 (Nature, 2024)
Positions count from the first letter of the chain named. Numbers in names are those of the source. Blank lines part the entries; values can stand above or below the binder they belong to.

Experiments:
[1] = molecular target: T1, E3mUU(ΔUFIM) with UFBP1(R265A) (UniProt O94874 1-179; Q96HY6 204-314, R265A); assay: SEC; analytical SEC, Superdex 200 Increase 3.2/300, 25 mM HEPES pH 7.5, 200 mM NaCl, 0.5 mM TCEP; components mixed and kept on ice before loading; peak fractions on Coomassie gels; conditions: both partners purified
T1 construct: UFL1; limits as stated for the crystallised E3mUU(ΔUFIM) construct; UFBP1 204-C; limits as for m14; source: recombinant, purified (HisTrap, HiLoad 26/600 Superdex 75 pg)

E3mUU(ΔUFIM) = molecular target: T2, E3mUU(ΔUFIM) (UniProt O94874 1-179; Q96HY6 204-314); assay: as above; conditions: both partners purified
T2 construct: UFL1; limits as stated for the crystallised E3mUU(ΔUFIM) construct; for the crystal 6×His-TEV-UFL1(1–179) was co-expressed with a UFC1-UFBP1 204-C fusion and the His tag was not cleaved; source: recombinant, purified (HisTrap, HiLoad 26/600 Superdex 75 pg)

binding result [1]: binds
B1: UFC1 (enzyme)
chain: MADEATRRVVSEIPVLKTNAGPRDRELWVQRLKEEYQSLIRYVENNKNADNDWFRLESNKEGTRWFGKCWYIHDLLKYEFDIEFDIPITYPTTAPEIAVPELDGKTAKMYRGGKICLTDHFKPLWARNVPKFGLAHLMALGLGPWLAVEIPDLIQKGVIQHKEKCNQ
notes: free UFC1 in SEC and ITC; also called E2

binding result (E3mUU(ΔUFIM)): binds
B2: UFC1(D50A) (enzyme)
chain: B1 chain with D50A
